R (BH3-2A), % of FRET signal of the same construct without BH3-2A, R (ABT-263), % of FRET signal left with 20 uM ABT-263 and IC50 of ABT-263 for displacing the pair data for 33 substances are collected here from paper PMC6414199, “Bim escapes displacement by BH3-mimetic anti-cancer drugs by double-bolt locking both Bcl-XL and Bcl-2” (eLife, 2019).

One test addresses mCerulean3-Bcl-2 (human) (UniProt P10415). In words: FRET or BRET; FLIM-FRET in live MCF-7 cells: mCer3-Bcl-XL or mCer3-Bcl-2 stably expressed (donor), Venus-BH3 protein transiently expressed (acceptor); binding curves of FLIM-FRET efficiency against the Venus:mCer3 intensity ratio, 25 C; untreated, DMSO, 20 uM ABT-263 (18-24 h) or 1.25-20 uM A-1155463, A-1331852, ABT-263; R values interpolated at ratio 0.5 (Bcl-XL) or 0.25 (Bcl-2), ^VBad4E signal subtracted.

Test [1] concerns the target mCerulean3-Bcl-XL (human) (UniProt Q07817). The description is as above.
In test [2] the target is Bcl-XL single-cysteine mutant 152C, Alexa647-labelled (human) (UniProt Q07817). Kind of test: FRET or BRET; purified Alexa568-labelled BH3 protein (10 nM) and Alexa647-labelled Bcl-XL (40 nM) with liposomes, ABT-263 titrated in; 37 C, 1 h; relative displacements, not absolute affinity.
Sequence of Bcl-XL single-cysteine mutant 152C, Alexa647-labelled (human) (Q07817 other isoform, or with tags, fused parts or gaps mutant): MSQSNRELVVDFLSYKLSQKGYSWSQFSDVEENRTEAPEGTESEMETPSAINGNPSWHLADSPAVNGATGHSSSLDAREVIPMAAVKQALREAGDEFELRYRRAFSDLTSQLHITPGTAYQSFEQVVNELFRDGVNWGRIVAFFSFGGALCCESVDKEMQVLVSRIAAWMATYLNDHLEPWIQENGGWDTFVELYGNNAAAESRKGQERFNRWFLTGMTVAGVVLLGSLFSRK

Sequence of mCerulean3-Bcl-XL (human) (Q07817 whole entry): as the sequence (Q07817 other isoform, or with tags, fused parts or gaps mutant) above, with C152V counted along it
Sequence of mCerulean3-Bcl-2 (human) (P10415 whole entry): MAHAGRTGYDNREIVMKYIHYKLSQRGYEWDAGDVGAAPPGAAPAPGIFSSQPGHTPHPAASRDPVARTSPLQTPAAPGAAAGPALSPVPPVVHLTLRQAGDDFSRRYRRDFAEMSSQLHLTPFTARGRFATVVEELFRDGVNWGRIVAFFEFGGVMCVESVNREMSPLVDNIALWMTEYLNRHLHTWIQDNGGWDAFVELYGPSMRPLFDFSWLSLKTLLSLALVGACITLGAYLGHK
Sequence of Venus-BimEL BH3-2A (O54918 whole entry): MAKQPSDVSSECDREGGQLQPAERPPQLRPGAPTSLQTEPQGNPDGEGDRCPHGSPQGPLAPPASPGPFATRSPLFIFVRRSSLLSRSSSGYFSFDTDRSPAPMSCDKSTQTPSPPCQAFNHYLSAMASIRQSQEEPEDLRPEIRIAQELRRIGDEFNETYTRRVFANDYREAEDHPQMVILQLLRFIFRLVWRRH
Sequence of Venus-BimEL-dN (domain or fragment) (O54918 whole entry, the tested form may be a part): as the sequence (O54918 whole entry) above
Sequence of Venus-BimEL-dCTS (domain or fragment) (O54918 whole entry, the tested form may be a part): as the sequence (O54918 whole entry) above

In the case of “Venus-BimEL-dCTS BH3-2A (domain or fragment)”, the R (BH3-2A), % of FRET signal of the same construct without BH3-2A with mCerulean3-Bcl-2 (human) was determined as 13.6%; in test [1] it was 15.1%.

Regarding Venus-Bad-Bim-I146Y-Q148R, the R (ABT-263), % of FRET signal left with 20 uM ABT-263 in the test with mCerulean3-Bcl-2 (human) turned out to be 61.8%; in test [1], 90.2%. On the same counts, the results for Venus-Bad-Bim-I146Y are 53.2% and 83.2%. In the case of Venus-Bad-Bim-I153M, the R (ABT-263), % of FRET signal left with 20 uM ABT-263 in the test with mCerulean3-Bcl-2 (human) turned out to be 68.5%; in test [1], 92.8%. “Venus-BimEL-V192E BH3-2A (from UniProt O54918-1 1-196) (natural protein)”: the R (BH3-2A), % of FRET signal of the same construct without BH3-2A with mCerulean3-Bcl-2 (human) is 54.5%; in test [1], 52.6%.

For the substance “Venus-BimEL-I188E BH3-2A (from UniProt O54918-1 1-196) (natural protein)”, the R (BH3-2A), % of FRET signal of the same construct without BH3-2A stood at 47.5% in the test with mCerulean3-Bcl-2 (human) and 67.2% in test [1].

For “Venus-BimEL-L185M BH3-2A (from UniProt O54918-1 1-196) (natural protein)”, the R (BH3-2A), % of FRET signal of the same construct without BH3-2A in test [1] was 90%.

Consider Venus-BimEL-Bad BH3-2A, for which, in test [1], the R (BH3-2A), % of FRET signal of the same construct without BH3-2A stood at 26.1%. Regarding Venus-Bad-Bim-Q148R, the R (ABT-263), % of FRET signal left with 20 uM ABT-263 is 53.5% with mCerulean3-Bcl-2 (human) and 89.8% in test [1]. Consider “Venus-BimEL-L185H BH3-2A (from UniProt O54918-1 1-196) (natural protein)”, for which the R (BH3-2A), % of FRET signal of the same construct without BH3-2A in test [1] came out at 49.1%.

Take Venus-Bad-Bim-I146Y-I153M BH3-2A: the R (BH3-2A), % of FRET signal of the same construct without BH3-2A with mCerulean3-Bcl-2 (human) is 42.6%; in test [1], 56.8%. On the same counts, the results for Venus-Bad-Bim-I153M BH3-2A are 102% and 96.5%. Take “Venus-BimEL-I146Y-dCTS (domain or fragment)”: the R (ABT-263), % of FRET signal left with 20 uM ABT-263 in the test with mCerulean3-Bcl-2 (human) worked out at 52.9%; in test [1], 38.5%. For the substance “Venus-BimEL-I181E BH3-2A (from UniProt O54918-1 1-196) (natural protein)”, the R (BH3-2A), % of FRET signal of the same construct without BH3-2A with mCerulean3-Bcl-2 (human) worked out at 47.2%; in test [1], 49.2%.

For the substance Venus-Bad-Bim-I146Y BH3-2A, in test [1], the R (BH3-2A), % of FRET signal of the same construct without BH3-2A stood at 46.6%. Consider “Venus-BimEL BH3-2A (from UniProt O54918-1 1-196) (natural protein)”, for which the values for the R (BH3-2A), % of FRET signal of the same construct without BH3-2A (with mCerulean3-Bcl-2 (human); in test [1]) were 66.8% and 81.4%, respectively. Consider Venus-BimEL-dCTS (domain or fragment), for which the R (ABT-263), % of FRET signal left with 20 uM ABT-263 with mCerulean3-Bcl-2 (human) was 60%; in test [1], 69%. Regarding “Venus-BimEL-L185R BH3-2A (from UniProt O54918-1 1-196) (natural protein)”, the R (BH3-2A), % of FRET signal of the same construct without BH3-2A in test [1] came out at 48.1%.

For “Venus-BimEL-L185F BH3-2A (from UniProt O54918-1 1-196) (natural protein)”, in test [1], the R (BH3-2A), % of FRET signal of the same construct without BH3-2A came to 100%.

With “Venus-BimEL-L185G BH3-2A (from UniProt O54918-1 1-196) (natural protein)”, the R (BH3-2A), % of FRET signal of the same construct without BH3-2A in test [1] came to 86.8%.

On to Venus-Bad with the BH3 region of Bim, for which the R (ABT-263), % of FRET signal left with 20 uM ABT-263 in the test with mCerulean3-Bcl-2 (human) is 65.5%; in test [1] it was 98%. On to “Venus-BimEL-I146Y BH3-2A (from UniProt O54918-1 1-196) (natural protein)”, for which the figures for the R (BH3-2A), % of FRET signal of the same construct without BH3-2A (in the test with mCerulean3-Bcl-2 (human); in test [1]) were 54.2% and 71%, respectively. As to Venus-BimEL-dN (domain or fragment), the R (ABT-263), % of FRET signal left with 20 uM ABT-263 with mCerulean3-Bcl-2 (human) is 90.5%; in test [1] it was 90.8%.

As for Venus-Bad-Bim-I146Y-I153M, the results for the R (ABT-263), % of FRET signal left with 20 uM ABT-263 (in the test with mCerulean3-Bcl-2 (human); in test [1]) were 69.1% and 89%, respectively. On to Venus-BimEL with the BH3 region of Bad, for which the R (ABT-263), % of FRET signal left with 20 uM ABT-263 with mCerulean3-Bcl-2 (human) is 65.8%; in test [1], 60.5%.

Regarding “Venus-BimEL-L185A BH3-2A (from UniProt O54918-1 1-196) (natural protein)”, the R (BH3-2A), % of FRET signal of the same construct without BH3-2A in test [1] turned out to be 159%. The substance “Bid single-cysteine mutant 126C (tBid, added as cBid), Alexa568-labelled (domain or fragment)” returned an IC50 of ABT-263 for displacing the pair in test [2] of 0.4 µM.

Turning to Venus-Bad-Bim-Q148R BH3-2A, the figures for the R (BH3-2A), % of FRET signal of the same construct without BH3-2A (with mCerulean3-Bcl-2 (human); in test [1]) were 56.9% and 74.5%, respectively. Regarding “Venus-BimEL-L185S BH3-2A (from UniProt O54918-1 1-196) (natural protein)”, the R (BH3-2A), % of FRET signal of the same construct without BH3-2A in test [1] worked out at 73.5%. Turning to Venus-Bad-Bim BH3-2A, the R (BH3-2A), % of FRET signal of the same construct without BH3-2A with mCerulean3-Bcl-2 (human) stood at 54.9%; in test [1] it was 70.2%.

With “Venus-BimEL-L185P BH3-2A (from UniProt O54918-1 1-196) (natural protein)”, in test [1], the R (BH3-2A), % of FRET signal of the same construct without BH3-2A was 59%. Regarding Venus-BimEL-Bad-dCTS, the values for the R (ABT-263), % of FRET signal left with 20 uM ABT-263 (with mCerulean3-Bcl-2 (human); in test [1]) were 12.5% and 40.2%, respectively.

Venus-Bad-Bim-I146Y-Q148R BH3-2A: the R (BH3-2A), % of FRET signal of the same construct without BH3-2A with mCerulean3-Bcl-2 (human) stood at 37.7%; in test [1], 50.5%.
